Assay results: the supplement of paper PMC7125110
± gives the standard error. For some of these results: Fewer inactive variants are shown than the library holds.

B1: glmS ribozyme (parent)
chain: AUAAAAGCGCCAGAACUACAGAAAUGUAGUUGACGAGGAGGAGGUUUAUCGAAUUUUCGGCGGAUGCCUCCAAA

Tests used:
Conditions in all cases: with glucosamine-6-phosphate
[1] = variants of: B1; test: kcat; higher = faster cleavage; RNA array
In short: (§1)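 A hybridised Cy3 probe tracked barcoded ribozyme variants, transcribed in situ by E. coli RNA polymerase on sequenced MiSeq chips, at 37 °C. The variants received 40 μM to 10 mM glucosamine-6-phosphate in HEPES/KCl/Mg(OAc)2 buffer. kobs came from decay fits and kcat and KM from weighted Michaelis–Menten fits.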

[2] = variants of: B1; test: KM; higher = weaker cofactor use; RNA array
In short: as §1

[3] = variants of: B1; test: self-cleavage kobs at 40 uM GlcN6P; higher = faster cleavage; RNA array
In short: as §1

[4] = variants of: B1; test: self-cleavage kobs at 160 uM GlcN6P; higher = faster cleavage; RNA array
In short: as §1

[5] = variants of: B1; test: self-cleavage kobs at 640 uM GlcN6P; higher = faster cleavage; RNA array
In short: as §1

[6] = variants of: B1; test: self-cleavage kobs at 2500 uM GlcN6P; higher = faster cleavage; RNA array
In short: as §1

[7] = variants of: B1; test: self-cleavage kobs at 10000 uM GlcN6P; higher = faster cleavage; RNA array
In short: as §1

Row | Variant | kcat [1] [s⁻¹] | KM [2] [µM] | self-cleavage kobs at 40 uM GlcN6P [3] [s⁻¹] | self-cleavage kobs at 160 uM GlcN6P [4] [s⁻¹] | self-cleavage kobs at 640 uM GlcN6P [5] [s⁻¹] | self-cleavage kobs at 2500 uM GlcN6P [6] [s⁻¹] | self-cleavage kobs at 10000 uM GlcN6P [7] [s⁻¹]
1 | C34A U56G | < 1e-05 | 31 ± 12 | < 1e-05 | < 1e-05 | < 1e-05 | < 1e-05 | 
2 | A39G G66U | 0.00533 ± 0.00016 | 1960 ± 79 | 0.000107 ± 1.9e-05 |  | 0.00133 ± 0.00029 | 0.00285 ± 0.0009 | 0.00451 ± 0.00097
3 | G41C U54C | 0.000229 ± 4e-05 |  |  |  | 0.000132 ± 2.8e-05 | 0.000162 ± 3.3e-05 | 0.000204 ± 2.4e-05
4 | G38A C70G | 1.82e-05 ± 1.9e-06 |  |  |  |  |  | 
5 | G40C C70G | 0.000147 ± 2.2e-05 | 973 ± 420 |  |  | 5.48e-05 ± 8.7e-06 | 0.000163 ± 2.9e-05 | 0.000128 ± 1.3e-05
6 | C34U G63C | < 1e-05 |  |  |  | < 1e-05 | < 1e-05 | 
7 | A36C U65G C70U | 1.94e-05 ± 5.3e-06 |  |  |  |  |  | 
8 | A39C U46A | 0.000341 ± 6.3e-05 | 2880 ± 980 |  |  | 5.57e-05 ± 1e-05 | 0.000209 ± 3.4e-05 | 0.000249 ± 3.6e-05
9 | A39C U46G | 0.000897 ± 0.00012 | 2000 ± 420 |  | 6.87e-05 ± 9.7e-06 | 0.000224 ± 2e-05 | 0.00042 ± 6.2e-05 | 0.000829 ± 0.0001
10 | G40C G41U | 8.06e-05 ± 2.1e-05 |  |  |  |  | 8.04e-05 ± 1.1e-05 | 6.61e-05 ± 7.9e-06
11 | G38A U56A | < 1e-05 | 52.5 ± 11 |  |  | < 1e-05 |  | < 1e-05
12 | G40A U65A | 0.00131 ± 0.0003 | 2690 ± 980 | 3.89e-05 ± 8.4e-06 | 7.08e-05 ± 1.3e-05 | 0.000213 ± 4.3e-05 | 0.000615 ± 0.00011 | 0.00106 ± 0.00012
13 | G40A U65G | 0.00247 ± 0.00015 | 2990 ± 340 | 3.72e-05 ± 1.4e-05 |  | 0.000421 ± 0.0001 | 0.00107 ± 0.00028 | 0.00192 ± 0.00028
14 | G37A U47G U55G | 0.000459 ± 0.00013 |  |  |  | 0.000101 ± 1.6e-05 | 0.000183 ± 2.9e-05 | 0.000412 ± 6.3e-05
15 | G37C A53U U69G | 3.72e-05 ± 1.7e-05 |  |  |  | 3.81e-05 ± 1.9e-05 | 6.4e-05 ± 2.4e-05 | 
16 | A39C U57G | < 1e-05 |  |  | < 1e-05 |  |  | 
17 | G37A U65G | 0.000263 ± 1.3e-05 | 3870 ± 390 |  |  | 4.13e-05 ± 1.5e-05 | 0.000102 ± 1.2e-05 | 0.000191 ± 2.3e-05

Row | Variant | kcat [1] [s⁻¹] | KM [2] [µM] | self-cleavage kobs at 40 uM GlcN6P [3] [s⁻¹] | self-cleavage kobs at 160 uM GlcN6P [4] [s⁻¹] | self-cleavage kobs at 640 uM GlcN6P [5] [s⁻¹] | self-cleavage kobs at 2500 uM GlcN6P [6] [s⁻¹] | self-cleavage kobs at 10000 uM GlcN6P [7] [s⁻¹]
18 | G41U C71A | 0.000252 ± 2.1e-05 | 604 ± 120 |  | 5.27e-05 ± 9.4e-06 | 0.000128 ± 1.2e-05 | 0.000235 ± 2.8e-05 | 0.000219 ± 2.8e-05
19 | G41U C71G | 0.000121 ± 9e-06 | 1780 ± 490 |  |  | 2.64e-05 ± 1.1e-05 | 8.28e-05 ± 1.7e-05 | 0.000102 ± 9.5e-06
20 | A39U U46G | 0.00673 ± 0.0011 | 4400 ± 920 | 5.61e-05 ± 1.4e-05 | 0.000227 ± 6.1e-05 | 0.000968 ± 0.00018 | 0.0023 ± 0.00049 | 0.00476 ± 0.0014
21 | G38A A52C | 1.04e-05 ± 2.3e-07 | 129 ± 16 |  |  | < 1e-05 |  | < 1e-05
22 | A33C C58U | < 1e-05 |  |  | < 1e-05 |  |  | < 1e-05
23 | G40C G63C | < 1e-05 |  |  | < 1e-05 |  | < 1e-05 | 
24 | A39U A42U | 0.00653 ± 0.0017 | 1400 ± 530 | 0.000312 ± 7.2e-05 | 0.000582 ± 8.8e-05 | 0.00223 ± 0.00042 | 0.00602 ± 0.0014 | 0.00529 ± 0.00096
25 | G35U U54G C70A | 1.53e-05 ± 4.8e-06 |  |  |  |  | < 1e-05 | 
26 | G38A U65A | < 1e-05 |  |  |  |  |  | 
27 | G41C U56A | 0.000159 ± 4.4e-05 |  |  |  | 2.18e-05 ± 1e-05 | 0.000129 ± 3e-05 | 0.000121 ± 1.5e-05
28 | C34A A36C U45A | < 1e-05 |  | < 1e-05 | < 1e-05 |  |  | 
29 | G40A U47A | 0.00464 ± 0.00058 | 1440 ± 270 | 0.000132 ± 2.1e-05 |  | 0.00126 ± 0.00024 | 0.0033 ± 0.00065 | 0.00398 ± 0.00077
30 | G41U G66A | 0.00293 ± 0.00055 | 1820 ± 560 | 7.21e-05 ± 1.7e-05 | 0.000253 ± 7.9e-05 | 0.000701 ± 0.00023 | 0.00141 ± 0.00028 | 0.00299 ± 0.00054
31 | G40A G41U | 7.26e-05 ± 2.3e-06 | 1160 ± 110 |  |  | 2.54e-05 ± 8.5e-06 | 5.29e-05 ± 1.9e-05 | 6.43e-05 ± 1.3e-05
32 | A39U C71U | 0.0168 ± 0.0026 | 1030 ± 230 | 0.000702 ± 7.4e-05 | 0.00196 ± 0.00029 | 0.00657 ± 0.00085 | 0.0105 ± 0.0014 | 0.0183 ± 0.0026
33 | A39U C71A | 0.00326 ± 0.00043 | 1880 ± 370 | 6.47e-05 ± 9.1e-06 | 0.000353 ± 6.3e-05 | 0.000728 ± 0.00015 | 0.00175 ± 0.00039 | 0.0028 ± 0.00031
